Blank lines part the entries; values can stand above or below the binder they belong to.
Legend:
[1] = biological target: T1, rabbit skeletal muscle actin (rabbit, UniProt P68135 1-377); assay: pyrene-actin polymerisation kinetics
[2] = biological target: T1, rabbit skeletal muscle actin; assay: pyrene-actin polymerisation kinetics; remark: listed apart in the source
[3] = biological target: T1, rabbit skeletal muscle actin; assay: co-sedimentation

- Kd [1]: ~20 nM
- Kd [2]: 10 to 100 nM
- Kd [3]: 100 nM
- stoichiometry N [3]: 11 actin subunits per tensin
B1: full-length epitope-tagged recombinant chick cardiac muscle tensin (natural protein)
chain: MDFGSVMNQAATPCSPAVNYELPSPGQSITKQVDTPDATRSPRGGQAHRKASRSMSVTAAMESSCELDLVYITERIIAVSYPSTAEEQSFRSNLREVAHMLKSKHGDNYVLFNLSERRHDISKLHPKVLDFGWPDLHTPALEKICSICKAMDTWLNAAAHNVVVLHNKGNRGRLGVVVAAYMHYSNISASADQALDRFAMKRFYEDKVVPVGQPSQKRYIHYFSGLLSGSIKMNNKPLFLHHVIMHGIPNFESKGGCRPFLKIYQAMQPVYTSGIYNVQGDSQTGICITIEPGLLLKGDILLKCYHKKFRSPTRDVIFRVQFHTCAVHDLDIVFGKEDLDEAFRDERFPEYGKVEFVFSYGPEKIQGMEHLENGPSVSVDYNTSDPLIRWDSYENFNIQREDSTEGTWAEPALPGKHLEKEVGHTQGPLDGSLYAKVKKKDSLHGSIGAVNAARLPLSAAPNHVEHTLSVSSDSGNSTASTKTDRTDEPGAPGAPTGHAVLSPEEKRELDRLLVGFGLESAPPMHNHAPGPAPARLPAGPGRHVVPAQVHVNGAGTPLLAERETDILDDELPNQDGHSVGSLGTLSSLDGTTTASEAGFHEAPRVGSLSSLPNGPASYNGAEKMLKEGLYEAEPLSNGAYPYSNQNTLMGHHLRDPLAHLRPSASAQEHLAGYPQRQPASTSPAWLQPPVPQPYLYGYDLPSAHRSQSFPAVGTAKYEANLALPQAPARSTSSREAVQRGLNSWQQQGGSRPPSQLHDGGLESHSPSLSSCSPQPSPLQPMPPHSHSMPEFPRAPSRREIEQSIEALDVLMLDLAPSVHKSQSVPSAATRQDKPAAMLSSLSAQPLSGHYAQPTPQVVQPRSFGTSVGTDPLAKAYSPGPLVPAARSTAEPDYTVHEYRETYTPYSYQPVPEPRSYGSAPASILPLSASYSPAGSQQLLVSSPPSPTAPAQSQLPHKGLESYEDLSRSGEEPLNLEGLVAHRVAGVQSREKSPEESTVPARRRTPSDSHYEKSSPEPGSPRSPTVLSPEVVSTIAANPGGRPKEPHLHSYKEAFEEMESASPSSLTSGGVRSPPGLAKTPLSALGLKPHNPADILLHPVGELEGEAGADSEEEPRSYVESVARTATTGRAGNLPAAQPVGLEVPARNGAFGNSFTVPSPVSTSSPIHSVDGASLRSYPSEGSPHGTVTPPHAVAETAYRSPMVSQTPSAHSSYQTSSPSSFQAGTLGSPYASPDYPDGRAGFQPDPQARQQPQVSVVGVHALPGSPRTLHRTVATNTPPSPGFGRRAANPAVASVPGSPGLGRHTVSPHAPPGSPSLARHQMAAVPPGSPMYGYSSPEERRPTLSRQSSASGYQPPSTPSFPVSPAYYPGTSTPHSSSPDSAAYRQGSPTPQPALPEKRRMSAGERSNSLPNYATVNGKASSPLSSGMSSPSSGSAVAFSHTLPDFSKFSMPDISPETRANVKFVQDTSKYWYKPDISREQAIALLKDREPGAFIIRDSHSFRGAYGLAMKVASPPPTVMQQNKKGDITNELVRHFLIETSPRGVKLKGCPNEPNFGCLSALVYQHSIMPLALPCKLVIPDRDPMEEKKDAASTTNSATDLLKQGAACNVLFINSVEMESLTGPQAISKAVAETLVADPTPTATIVHFKVSAQGITLTDNQRKLFFRRHYPLNTVTFCDLDPQERKWTKTDGSGPAKLFGFVARKQGSTTDNVCHLFAELDPDQPAAAIVNFVSRVMLGSGQKR

- stoichiometry N [3]: 2 to 4 actin subunits per tensin fragment
B2: GST-tensin p29(1-263) (domain or fragment)
chain: MDFGSVMNQAATPCSPAVNYELPSPGQSITKQVDTPDATRSPRGGQAHRKASRSMSVTAAMESSCELDLVYITERIIAVSYPSTAEEQSFRSNLREVAHMLKSKHGDNYVLFNLSERRHDISKLHPKVLDFGWPDLHTPALEKICSICKAMDTWLNAAAHNVVVLHNKGNRGRLGVVVAAYMHYSNISASADQALDRFAMKRFYEDKVVPVGQPSQKRYIHYFSGLLSGSIKMNNKPLFLHHVIMHGIPNFESKGGCRPFLKI

Source: publication PMC2120063 (The Journal of Cell Biology, 1994)
